In data set [1] the target is T1, L-selectin (LS-Rg) (Homo sapiens) (UniProt P14151).
T1 sequence: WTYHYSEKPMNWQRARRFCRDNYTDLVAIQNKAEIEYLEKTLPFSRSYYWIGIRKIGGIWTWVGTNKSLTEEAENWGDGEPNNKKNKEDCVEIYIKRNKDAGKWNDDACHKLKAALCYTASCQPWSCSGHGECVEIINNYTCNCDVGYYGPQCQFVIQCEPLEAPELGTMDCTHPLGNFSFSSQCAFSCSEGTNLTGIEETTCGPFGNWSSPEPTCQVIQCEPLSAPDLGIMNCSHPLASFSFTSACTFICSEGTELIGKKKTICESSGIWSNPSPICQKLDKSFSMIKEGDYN
The experiment in a line: filter.

Data set [2] deals with T2, E-selectin (ES-Rg) (Homo sapiens) (UniProt P16581).
T2 sequence: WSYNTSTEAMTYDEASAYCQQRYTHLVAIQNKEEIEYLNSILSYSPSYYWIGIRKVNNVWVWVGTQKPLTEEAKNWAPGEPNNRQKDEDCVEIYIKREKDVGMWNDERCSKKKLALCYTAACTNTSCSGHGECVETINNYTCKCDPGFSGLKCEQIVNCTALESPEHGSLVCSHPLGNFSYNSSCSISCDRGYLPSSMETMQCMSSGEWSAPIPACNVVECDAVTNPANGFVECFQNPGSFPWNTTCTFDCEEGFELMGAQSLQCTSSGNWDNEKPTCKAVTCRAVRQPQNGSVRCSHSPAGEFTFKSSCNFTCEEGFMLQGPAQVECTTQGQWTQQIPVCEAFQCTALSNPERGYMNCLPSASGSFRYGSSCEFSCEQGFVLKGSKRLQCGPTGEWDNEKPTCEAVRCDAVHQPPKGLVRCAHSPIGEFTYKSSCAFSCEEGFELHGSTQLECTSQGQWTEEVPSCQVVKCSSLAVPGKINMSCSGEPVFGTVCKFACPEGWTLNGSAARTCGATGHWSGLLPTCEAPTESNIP
Put plainly: filter.

In the next data set the target is CD22beta (CD22b-Rg) (UniProt P20273). Put plainly: filter.
For data set [3], the target named is T3, P-selectin (PS-Rg) (Homo sapiens) (UniProt P16109).
T3 sequence: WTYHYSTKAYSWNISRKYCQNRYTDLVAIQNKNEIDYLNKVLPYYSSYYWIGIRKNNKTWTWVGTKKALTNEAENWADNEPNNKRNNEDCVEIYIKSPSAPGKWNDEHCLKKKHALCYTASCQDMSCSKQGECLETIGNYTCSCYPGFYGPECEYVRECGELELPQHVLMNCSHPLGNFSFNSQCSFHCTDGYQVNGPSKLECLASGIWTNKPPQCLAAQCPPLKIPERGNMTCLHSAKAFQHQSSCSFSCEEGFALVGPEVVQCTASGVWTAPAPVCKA
Put plainly: filter.

Data set [4] concerns the target T4, Wheat germ agglutinin (WGA) (Triticum vulgare) (UniProt P10968).
T4 sequence: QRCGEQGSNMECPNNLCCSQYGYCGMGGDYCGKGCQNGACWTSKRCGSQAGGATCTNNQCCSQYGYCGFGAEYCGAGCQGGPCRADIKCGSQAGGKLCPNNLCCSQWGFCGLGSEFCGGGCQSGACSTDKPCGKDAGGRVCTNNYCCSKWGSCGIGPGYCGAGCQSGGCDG
The experiment in a line: filter.

Data set [5] has as its system Datura stramonium lectin (Datura stramonium). The experiment in a line: filter.
Data set [6] deals with T5, soluble L-selectin (Homo sapiens) (UniProt P14151).
T5 sequence: T1 sequence
The experiment in a line: filter. The settings on record: 2'-F C and U, 37 C.

Data set [7] has as its target T6, L-selectin on PBMC / lymphocytes (Homo sapiens) (UniProt P14151).
T6 sequence: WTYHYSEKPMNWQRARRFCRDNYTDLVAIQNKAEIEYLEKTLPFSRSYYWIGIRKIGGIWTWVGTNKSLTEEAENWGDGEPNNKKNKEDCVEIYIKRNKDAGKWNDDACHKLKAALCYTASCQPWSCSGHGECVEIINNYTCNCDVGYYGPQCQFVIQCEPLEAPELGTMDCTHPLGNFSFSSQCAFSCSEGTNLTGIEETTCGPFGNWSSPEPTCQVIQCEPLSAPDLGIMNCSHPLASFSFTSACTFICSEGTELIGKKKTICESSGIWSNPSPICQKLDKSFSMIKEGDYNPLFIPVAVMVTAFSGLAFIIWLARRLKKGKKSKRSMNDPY
The settings on record: 2'-NH2 on all C and U; PBMC binding on ice; competed by DREG-56.

Data set [8] has as its target T1, L-selectin (LS-Rg) (Homo sapiens). Put plainly: inhibition. The note with it: 2'-NH2 C and U; sialyl-LewisX competition ELISA.
The mark [9] stands for this setting: 2'-NH2 C and U, <5% bound at 1 uM.
The mark [10] stands for this setting: 2'-NH2 C and U, HBSS, room temperature.
The mark [11] stands for this setting: 2'-NH2 on all C and U, 4 C, HSMC.

Turning to “CTACCTACGATCTGACTAGCCGAGGATCTGATACTTATTGAACATAMCCGCACNCAGGCTTGCTTACTCTCATGTAGTTCC [LD102]”, the Kd in data set [1] (37 C) came to 7.9 nM. For “CTACCTACGATCTGACTAGCCGAGGTAGTCGTTATAGGGTRCRCACGACACAAARCRGTRGCTTACTCTCATGTAGTTCC [LD127]”, the dissociation constant (Kd) is 1.3 µM in [2] (room temperature); greater than 100 µM with CD22beta (CD22b-Rg) (<1% at 700 nM); 780 nM in [3] (room temperature); greater than 100 µM in data set [4] (<3% at […]); 1 nM in data set [1] (room temp, 890 pM at 37 C). As for “GGGAAAAGCGAAUCAUACACAAGAAAGGGAUGGGAUUGGGACGAGCGGCCAAGACUCGGCGGGAACGAAGGGUCCGCUCCGCCAGAGACCAACCGAGAA [WGA ligand 6.8]”, the Kd in data set [5] (setting [9]) is greater than 20 µM.

Regarding “GGGAAAAGCGAAUCAUACACAAGACAGCGGCGGAGUCAGUGAAAGCGUGGGGGGYGCGGGAGGUCUACCCUGACGCUCCGCCAGAGACCAACCGAGAA [WGA ligand 6.14]”, in [4] (2'-NH2 on all C and U, <5% bound at 1 uM WGA, estimate), the equilibrium dissociation constant (Kd) was greater than 20 µM. Regarding “GGGAAAAGCGAAUCAUACACAAGACGGCUGUGUGGUGUUGGAGCGUCAUAGUAGGAGUCGUCACGAACCAAGGCGCUCCGCCAGAGACCAACCGAGAA [WGA ligand 11.24]”, the Kd in data set [5] (setting [9]) is greater than 20 µM. The sequence “GGGAAAAGCGAAUCAUACACAAGACUGGCAAGRAGUGCGUGAGGGUACGUUAGGGGUGUUUGGGCCGAUCGCAUGCUCCGCCAGAGACCAACCGAGAA [WGA ligand 11.7]” showed a Kd in data set [4] (2'-NH2 on all C and U, HBSS, room temperature) of 0.016 µM. As to “GGGAAAAGCGAAUCAUACACAAGAGAGGUGRAUGGGAGAGUGGAGCCCGGGUGACUCGAGGAUUCCCGUGCUCCGCCAGAGACCAACCGAGAA [WGA ligand 11.3]”, the Kd in data set [4] (setting [10]) stood at 0.41 µM.

Consider “GGGAAAAGCGAAUCAUACACAAGAGUAGGAGGUUCCAUCACCAGGACUCGGCGGGAACGGAAGGUGAUGSGCUCCGCCAGAGACCAACCGAGAA [WGA ligand 11.35]”, for which the Kd in data set [4] (setting [10]) turned out to be 0.09 µM. For the sequence “GGGAAAAGCGAAUCAUACACAAGANNNNNNNNNNNNNNNNNNNNNNNNNNNNNNNNNNNNNNNNNNNNNNNNNNGCUCCGCCAGAGACCAACCGAGAA [50N9 random 2'-NH2 RNA]”, the Kd in [4] (2'-NH2 on all C and U, undetectable at 36 uM WGA monomer, p130 prints >4 uM) was greater than 4000 µM. With “GGGAAAAGCGAAUCAUACACAAGAUUGGUCGUACUGGACAGAGCCGUGGUAGAGGGAUUGGGACAAAGUGUCAGCUCCGCCAGAGACCAACCGAGAA [WGA ligand 11.20]”, the dissociation constant (Kd) in data set [5] (2'-NH2 on all C and U, specificity control) was 11.2 µM. For “GGGAGACAAGAAAUAAACNCUCAAGCCCCAAACGCAAGUGAGCAUCCGCAACAGGGAAGAAGACAGAUGAAUGAUUCGACAGGAGGCUCACAACAGGC [PA466]”, in data set [3] (2'-NH2 C and U, 37 C), the Kd is 0.43 nM.

Turning to “GGGAGACAAGAAUAAACGCUCAAAAGGUGCCGGGUUGGAGGGGUAGCAAGAAAUGGCUAGGGCGCASGAUUCGACAGGNGGCUCACAACAGGC [PA339]”, in [3] (2'-NH2 C and U, 37 C), the Kd was found to be 13.5 nM. “GGGAGACAAGAAUAAACGCUCAAAUCAACUAAACAACGCAGUCACGAGAACGACCGGKCUGACUCCGAAAGUUCGACAGGAGGCUCACAACAGGC [PA448]” showed a Kd in [3] (2'-NH2 on all C and U, 37 C) of 5 nM. “GGGAGACAAGAAUAAACGCUCAACGAGUUCACAUGGGAGCAAUCUCCGAAUAAACAACACGCKAKCGCAAAUUCGACAGGAGGCUCACAACAGGC [PF424]” displayed a Kd in data set [3] (2'-F C and U, HSMC, 37 C) of 0.0365 nM. “GGGAGACAAGAAUAAACGCUCAAGUACRCAGUGAGCAGAAGCAGAGAGACUUGGGAUGGGAUGAAAUGGKCUUCGACAGGAGGCUCACAACAGGC [PA467]” registered a Kd in data set [3] (2'-NH2 C and U, 37 C) of 24 nM. Same read-out and setting: next, “GGGAGACAAGAAUAAACGCUCAANNNGAGGAAGGGCACGCAAGGAAACAAAACACAAAGCAGAAGUAGUAAGAUUCGACAGGAGGCUCACAACAGGC [PA465]”: greater than 50 nM. On the same count and under the same terms, next, “GGGAGACAAGAAUAAACNCUCAACGAAAUAGAAGGAACAGAAGAAUGGBGAWGNGGGAAAUGGCAACGAAUUCGACAGGNGGCUCACAACAGGC [PA321]”: 8 nM; “GGGAGACAAGAAUAAACNCUCAAGCCCCAAGCAAGUGAGCAUCCGCAACAGGGAAGAAGACAGACGAGUGAUUCGACAGGAGGCUCACAACAGGC [PA473]”: 0.36 nM. As to “GGGAGGACGAUGCGGAAGUGAAGCUAAAGCGGAGGGCCAUUCAGUUUCNCACCACAGACGACUCGCCCGA [F14.2]”, the Kd in [2] (2'-NH2 C and U, HSMC, 4 C) is 1.9 µM; with CD22beta (CD22b-Rg) (2'-NH2 C and U, <5% bound, 4 C), greater than 20 µM; in data set [3] (2'-NH2 C and U, HSMC, 4 C), 450 nM; in data set [1] (2'-NH2 on all C and U, 4 C, 7.2 nM at room temp), 1.8 nM.

In turn, “GGGAGGACGAUGCGGAAGUGAAGCUAAAGSGGAGGGCCACUCAGAAACGCACCACAGACGACUCGCCCGA [F14.13]” showed a Kd in data set [1] (2'-NH2 C and U, 4 C, biphasic (0.74), low affinity 270 nM) of 1.3 nM. The sequence “GGGAGGACGAUGCGGACGUGUGUAUCRARUUUUCCGCUGUUUGUGCAGACGACUCGCCCGA [LF1718]” gave a Kd in [6] of 0.0064 µM. Still for that read-out and setting: the result for “GGGAGGACGAUGCGGAUAYUCAGCUYGUGUKUUUUCDAUCUUCCCCAGACGACUCGCCCGA [LF1707]” reads 0.00016 µM. The sequence “GGGAGGACGAUGCGGCCGUACAUGGUAARCCUCGAAGGAUUCCCGGGAUGAUCCCCAGACGACUCGCCCGA [F14.27]” had a Kd in data set [1] (2'-NH2 C and U, HSMC, 4 C) of 145 nM. Regarding “GGGAGGACGAUGCGGGAGGAAUGGACWGCGUAUAUCGAGUUGCCUCAGACGACUCGCCCGA [LF1713]”, the Kd in data set [6] (table prints SEQ 338) came out at 0.00022 µM. As for “GGGAGGACGAUGCGGNNNNNNNNNNNNNNNNNNNNNNNNNNNNNNNNNNNNNNNNCAGACGACUCGCCCGA [40N7 random 2'-NH2 RNA]”, the Kd in data set [1] (2'-NH2 on all C and U, random pool, estimate) is 10000 nM. Consider “GGGAGGACGAUGCGGUAACAACAAUCAAGGCGGGUUYACCGCCCCAGUAUGAGUACAGACGACUCGCCCGA [F14.12]”, for which the Kd was 0.047 µM in data set [2] (setting [11]); greater than 20 µM with CD22beta (CD22b-Rg) (2'-NH2 on all C and U, <5% bound at 660 nM protein); 910 nM in [3] (setting [11]); 0.06 nM in data set [1] (2'-NH2 on all C and U, 4 C, HSMC (Ca, Mg), Table 9 prints 5.8 pM (4 C), 1.7 nM room temp); 0.0013 µM in data set [7]. This sequence showed an IC50 in data set [8] of 0.01 µM. With “GGGAGGACGAUGCGGUCCAGAGCGUGAAGAUCAACGUCCCGGNGUCGAAGACAGACGACUCGCCCGA [F14.70]”, the Kd in data set [2] (2'-NH2 C and U, HSMC, 4 C) is 5.9 µM; in the data set with CD22beta (CD22b-Rg) (2'-NH2 C and U, <5% bound, 4 C) it was greater than 20 µM; in [1] (2'-NH2 on all C and U, 4 C, biphasic, fraction 0.75, second Kd 254 nM), 2 nM. On to “GGGAGGACGAUGCGGUUAGCCUACACUCUAGGUUCAGUUUUCGAAUCUUCCACCGCWGACGACUCGCCCGA [LF1618]”, for which the Kd in data set [1] (2'-F on all C and U, 37 C) is 9.6 nM.
